Data from paper PMC6446281.

Experiments:
HA-SUMO3 [1] = target: HA-SUMO3 (UniProt P55854); assay: co-IP; 293T cells cotransfected with GFP-INwt/mut and HA-SUMO2 or HA-SUMO3, 40 h; lysis buffer 20 mM Tris-HCl pH 7.5, 100 mM NaCl, 0.5% NP-40, 0.5 mM EDTA; immunoprecipitated with anti-HA, blotted with anti-GFP; densitometry with GFP-INwt set as 100%
[2] = target: GFP-IN 3VI mutant (V72A/I73A, I200A/V201A, V259A/V260A) (HIV-1); assay: co-IP
HA-SUMO3 [3] = target: HA-SUMO3 (UniProt P55854); assay: co-IP (IP anti-HA, WB anti-GFP) with densitometric analysis; settings: 293 T cells cotransfected with GFP-INwt/mut and HA-SUMO3; parent: est. 1.0; read off a plot
[4] = target: M1 + M2 and M1 + M3 mutants; assay: co-IP; 293T cells cotransfected with GFP-INwt/mut and T7-LEDGF/p75, T7-Ku70 or HA-Ubc9; immunoprecipitated with rabbit anti-GFP, blotted with anti-T7 or anti-HA
M2 and M3 = assay: as above

T7-Ku70, sequence (P12956 whole entry): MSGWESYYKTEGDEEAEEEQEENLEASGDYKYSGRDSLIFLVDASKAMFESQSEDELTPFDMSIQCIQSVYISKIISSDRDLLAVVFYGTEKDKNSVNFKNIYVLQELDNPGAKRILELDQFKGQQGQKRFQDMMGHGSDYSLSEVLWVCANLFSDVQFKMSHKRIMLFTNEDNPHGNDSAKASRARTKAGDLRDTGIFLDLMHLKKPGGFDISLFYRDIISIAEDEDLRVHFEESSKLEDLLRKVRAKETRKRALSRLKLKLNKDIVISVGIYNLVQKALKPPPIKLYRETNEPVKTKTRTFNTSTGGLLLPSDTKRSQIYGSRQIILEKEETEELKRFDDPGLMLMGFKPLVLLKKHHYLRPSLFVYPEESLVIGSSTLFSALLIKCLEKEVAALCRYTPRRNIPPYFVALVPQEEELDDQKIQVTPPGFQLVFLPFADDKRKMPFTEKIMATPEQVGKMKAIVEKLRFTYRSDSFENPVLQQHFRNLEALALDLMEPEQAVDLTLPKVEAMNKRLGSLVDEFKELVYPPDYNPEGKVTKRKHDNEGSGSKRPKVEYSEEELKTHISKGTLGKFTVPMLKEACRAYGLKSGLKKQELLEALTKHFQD

## GFP-IN mutant M2 (I200A/V201A) (enzyme)
HA-SUMO3 [1]
  percent reduction in binding against GFP-INwt: 80%

## T7-Ku70 (from UniProt P12956 1-609) (natural protein)
[2]
  fold change in binding against INwt: 2 fold

## GFP-IN wild type (HIV-1 integrase, codon-optimized, fused to AcGFP) K46R; K136R; K244R
HA-SUMO3 [3]
  ratio to parent: 1.1

## GFP-IN wild type (HIV-1 integrase, codon-optimized, fused to AcGFP) V72A; I73A
HA-SUMO3 [3]
  ratio to parent: 1.2

## T7-LEDGF/p75 (lens-epithelium-derived growth factor) (from UniProt O75475 1-530) (natural protein)
[2]
  percent of the binding of INwt: < 10%
[4]
  percent of the binding of INwt: 10 to 20%
M2 and M3
  percent of the binding of INwt: 40 to 60%

## GFP-IN mutant M3 (V259A/V260A) (enzyme)
HA-SUMO3 [1]
  percent reduction in binding against GFP-INwt: 67%

## GFP-IN wild type (HIV-1 integrase, codon-optimized, fused to AcGFP) V72A; I73A; I200A; V201A; V259A; V260A
HA-SUMO3 [3]
  ratio to parent: 0.01
